Reference: publication PMC8124269, “Antiviral Properties of the NSAID Drug Naproxen Targeting the Nucleoprotein of SARS-CoV-2 Coronavirus”

Molecular target: SARS-CoV-2 N NTD (batch 2, monomer) (SARS-CoV-2, UniProt P0DTC9 50-173)
Test: DLS; Anisotropy: 10 mM Tris pH 8.0, 50 mM NaCl, 2 mM beta-mercaptoethanol, thermostated (temperature not stated); DLS: 20 mM Tris pH 7.9, 100 mM NaCl, 20 C
Details: protein: recombinant; tags: N-terminal His6 (pET-28a); single strand

ATATATATCTATGTCCATATATATATAAAACACAGCGTGTGTGTGTAA (ssDNA) [48-mer ssDNA]: binds.
